Article PMC10112228

Molecular target: His-CcpA (nonphosphorylated) (Streptococcus pneumoniae D39) (UniProt A0A0H2ZQ65)
Assay: EMSA

CTTTCTGTGAACGTGATTTTTTAAAACGTCTACTCATGATTAACACCTATACATTGAACATCTTACGATTATATCACTTTTTTACGGTAATGTCTACACCTTTTTTCACTATCTGCATCTTTAAGTATCTTAGTAGACTTCCCGCGAACCAAAAATATAGTAAAATGAAATAAGAACATGACAAATTGATCAGGACAGTCAAATCGTTTTCTAACAATATTTTAGAAGCAGATGTGTACTATTCTAGTTTCAATATAATATAGTACACAATGTGGTATAATCTTTTT (double strand) [Pcps2A (-250/+35)]
binding: binds
